17 sequences from a protein production outcome set (Wang et al. 2014) can be followed below.

This series can be described thus: label from the status in PepcDB records.
As to “LADYSTEELEKIADKFRSDTSGIRGTKDFTSPEELYDELKKEIKKYHPSDDTSLVDKAYRVAYDAHKGQARKSGEPYIIHPLCVAIILAELELDKETIAAGLLHDVLEDTIMTMDEMRAEFGDDVAHLVDGVTKLKHLHLTDSTKDPKDKNADRLEMQAENLRKMFLAMAKDIRVILIKLADRLHNMRTLKYQSKEAQQRIARETQDIYCPIAQRLGISKIKIELEDLCMKYLYPDAYYDLVEKVALRKTERDTYIQGLVNDVKKYVSDAGIKAEIYGRAKHFFSIYKKMVNQDKTIDQIYDLFAIRILVDTIPDCYAVLGIIHEKYKPIPGRFKDYIAMPKQNMYQSLHTTLIGPSGQPFEIQIRTYEMHRTAEYGIAAHWKYKETNNGNATTTTVTEEEKLSWLRQILEWQQDMSDNKEFMTLLKSDLNLFSDNVFAFTPSGDVKNLPKGSTPIDFAYSIHSAVGNKMVGAKVNGKLVPIDYVIKNGDQIEIITSQNSKGPSRDWLKVVKSTQAKNKINQWFRSELKEENIQHGKDLIAAYAKAKGINFAEINKPEYQEKIRRKYGFHDWNSCLATVGHGGLKESQIVNRMYDEYKKDHVVPVTDADVLGSIAEKQQAAAGTQPEHKSKSGIVVHGLYDVAVHFSKCCNPVPGDEIVGFVTRGRGISIHRTDCVNIINLSKIEKDRLIEAEWQDTALMDNGAEYQADLKIFCHDRPGLLVDITKIFTEKEINISGIQSKTSKQGIATIEVFFNIKGRDQIKVLVEKLRQIESVIDVERTTG”, the protein production result was “failed”. Next, “MLGSIFTASAVVMILLGLGMLTVFTQRLVDQKIDIASSEIDRARVIVEEQITASGASTSVQARVNSARAALSSLGTSGGTETNAAYDPVVLVNNDDLVVSPEGYQIPERLRYFVSENQVSYQFSSIDQGDGSSYQALIIGTPTESDIPNLQVYLVFSMESDESSLALMRGLLSAALLIVVVLLVGIAWLATQQVTAPVRSASRIAERFAQGKLRERMVVEGEDEMARLAVSFNAMAESLSAQITKLEEYGNLQRQFTSDVSHELRTPLTTVRMAADLIADSEDELSPGARRASQLMNRELDRFESLLSDLLEISRHDAGVAELSTALHDVRIPVRSALEQVQHLATELDVELLVNLPEEAINIQGDSRRIERIIRNLLANAIDHSKGLPVELKVADNVDAVAIVVIDHGVGLKPGQDELVFNRFWRADPSRVRHSGGTGLGLAISREDAMLHGGNLDAAGTIGVGSIFRLVLPKEPHGNYREAPIPLIAPETPWEGEQQ”: “failed”. Next, “MCQMPCQFSWPYTHYFTQTKNKEKILNKLIVFTGGPGAGKTSVIEQLKTQGFICAPETGRHVIQMQVANHGSALPWNDKQAFRDEMTKEEVSNYRSFNVRQGDVFFDRSIVDVYGYSKLEQLPISHELITHCQTLRYHSQVFIFPPWASIFSNDEERKQDFSEAVATYQQMVDAYHKFGYQLIEVPKMSVEDRVAFILGSVIELEHHHHHH”: “not failed”; “MSQFDRIHLVVLDSVGIGAAPDANDFVNAGVPDGASDTLGHISKTVGLAVPNMAKIGLGNIPRPQALKTVPAEENPSGYATKLQEVSLGKDTMTGHWEIMGLNITEPFDTFWNGFPEDIITKIEDFSGRKVIREANKPYSGTAVIDDFGPRQMETGELIIYTSADPVLQIAAHEDIIPLEELYRICEYARSITMERPALLGRIIARPYVGEPGNFTRTANRHDYAVSPFEDTVLNKLDQAGIDTYAVGKINDIFNGSGINHDMGHNKSNSHGIDTLIKTMGLSEFEKGFSFTNLVDFDALYGHRRDPHGYRDCLHEFDERLPEIISAMRDKDLLLITADHGNDPTYAGTDHTREYIPLLAYSPSFTGNGLIPVGHFADISATVADNFGVDTAMIGESFLQDLV”: “failed”; “MLFYLYVTRCKQLLNYNNMETDNGDKEKSEEDDLCALKDALEAVILFQGLSEYQKKLMFPNLKNLGAETIKELIDEWKELNVEELNLNIKKQTFFTKFANASWSLMLLIQQENNFCFWMFYVIPTSLFFVCCVLLHLLNDGS”: “failed”. In the case of “MDLSSPSSFTATIDAPLRAAVFDSAVEAVLLVDPTLDQIVDANNAASALLGHDRDTLLQTRFSALHGAQLPALVVFTQAVFAKGTYWTHALTPLHADGTQLRLEYAGKLLPYRGRSLLLLTMSDLEQ”, the protein production entry was “failed”.

Take “MSSHPYVTQQNTPLADDTTLMSTTDLQSYITHANDTFVQVSGYTLQELQGQPHNMVRHPDMPKAAFADMWFTLKKGEPWSGIVKNRRKNGDHYWVRANAVPMVREGKISGYMSIRTRATDEE”: the protein production result is reported as “failed”. With “MTADKISPDMLRFERILAAPAATVWQYLVDPELRARWFMSGPTDLQVGGAFGLTMDHDRLSDEVVPTPDRYKPYVGHRWHERITRYEPPHLLAFTWEDGKAGEVTFALTEIDSGTTRLVLTHTGLRGSEDALNFGGGWHAHLAVLEKRIAGISIPDFWALHAVAEREMEIALVSEA” the entry was “failed”; with “MSSHPPIRSYVLRQGYFSNAQRHAYESLLPRYGIPLTEEPVDLDSIFGRTAPGILEIGSGMGETTAEIARQHPEKDFIAIEVHAPGIGSLLGQIEKHRLTNLRIIPHDAKLVLQQMFTSESLDGIHIFFPDPWPKARHHKRRLIQPDFVSLLCDRLKPGGYLHIATDWEDYATHILHVLRSEERFVNTAVDYAARPAYRPLTKFEQRGMKLGHTIRDIIFTRTALEHHHHHH”, “failed”. “MLSKILKTSLCFIFMTCWVTTAQAFKGPLETPASMKLHATTSQLTAVTRNGNRLAAVGARGLVLLSDDNGKKWQQVAVPVSSNLVSVQFPVPDQGWAVGHDGVVLHSGDGGRTWSKQLDGNQVAKIMLKHYEKLAAEGDAAASKILPDIQRILQEGADKPFMDVWFLDEKEGFVAGAFNLIMHTTDAGKTWVPLFERTDNPKNLHIYALKGVGKEVYLAGEMGMLRRWDRASQRFVTIASPYKGTFFGLLAKDTTILAFGLRGNAFRSSDRGNTWRKLNTNTTAGLTGGTFLDDGRAVLVSQDGQVLVIDVGSETFVPAKVSSPMAFSSVAPAGKNGIVAVGSRGVITESLK”: the protein production result is reported as “failed”. Turning to “MTTPSRRRLMRDFKKLQEDPPAGVSGAPTEDNILTWEAIIFGPQETPFEDGTFKLSLEFTEEYPNKPPTVKFISKMFHPNVYADGSICLDILQNRWSPTYDVAAILTSIQSLLDEPNPNSPANSLAAQLYQENRREYEKRVQQIVEQSWLNFGENEGDAVLKDDVEIEEIAAPGANDADDDRMDEGASGSNA”, the protein production result is reported as “not failed”. Next, “MTLTMGFIGFGKSANRYHLPYVNTRKNIKVKTIFARQINEELAAPYEEKGVSFTTNLDELLNDKEIQVVTVCTPAHTHYELAKKVILAGKSVIVEKPFCDTVEHAKELLALGREKGVVVMPYQNRRFDGDFLAVKQVVEQGFLGDIVEVESHIDYFRPGSINHEGPKEEGSFYSLGIHTMDRMISLFGRPDTVTYDIRNNEVDGAVDNYFDVGLHYGNQLKIKLKTNHVVAKDYPRFIVHGTNGSFIKYGEDQQENDLKAGIMPESAGFGEDSPMYYGIAKYRNANGDWIEKQIKTPLGDYGRFYDAAYETIVNGAPKLVKDEEAVTNIEILENGFAAPSPSVYKLEALNLNE”: “failed”; “MPPRKKPKSSALKSNKQSSANHSSQPSTFGIQQLFLRHIQNSQSTSNSHTSTADPVDQQNVNGLASDTAVLTPQNPLGTSNEKPDESKDMDQQLTEASPKISKNLKRFSPGMLIKQSQDDCGGEITWKISPVNERLRAAAKNIPKMMDLTENSLGKQCPTSGITSKVEQWLSSPSKKASKRPAFATNRVMERVNPSPDAEFEIVNTSSSGNSPFQTPPSLSCPHNKLPCTVTCSGACGSMGAGQHKKALLELLDQVEDVIAVDDKTTDDVGIVMPQARVKDDIISSVVDCAVDEGPVSLPKMQNSINPDSYFLVLEVSEKRGSGSSSKGQCPYKVLRLLDEHTGVECALYLWDEWFYSTVSPGDSINVIGEFDGDGKCDVDRQNNFLIVHPDTLVAGTRVAASFGCPRRTVLDERLRSNEHATVALLGTLQHQVFQAGLSQESPSVDGLQEYASTVIEKSIESLYACGVHEGDVRSTLFKAIPKMLNWIEHFRYSKDSEVSKVDFGSTIGKKAVKVSEVIDIEEMSWAPKYGLKGMIDASVRVIVESDMNTVNEKIMPLEFKSGKAPSGQSSIEHSAQVILYTLLMSERYLKHIDNGLLYYLQSDQTQGISVQRSDLVGLIIRRNELANDILVASTTQQLPPMLRADGGNTESSGLGDVFDTHVSHLSTLHFNFLRHWDRLIDLEGREMQLLRKDIAHPHGSKGSHSASYLSSMVLDVTNGFQHHNSHKETRFIYRFVRQKSSESRERVTSEDMIRTGNLATDDLDCKLRTGDRVILRTEVSHLTVANGIIADISRTHISVSLSKRLRLPWSEPSSEVSNLSHELWRIYKDEFMTSFSVMRFNLMQLFVQNGHNIRKMIVDLEPPRFDNGSILSQDPAISYIWSEKSLNNDQRQAILKILTAKDYALILGMPGTGKTSTMVHAVKALLIRGSSILLASYTNSAVDNLLIKLKAQGIEFLRIGRDEAVHEEVRESCFSAMNMCSVEDIKKKLDQVKVVASTCLGINSPLLVNRRFDVCIIDEAGQIALPVSIGPLLFASTFVLVGDHYQLPPLVQSTEARENGMGISLFRRLSEAHPQAISVLQNQYRMCRGIMELSNALIYGDRLCCGSAEVADATLVLSTSSSTSPWLKKVLEPTRTVVFVNTDMLRAFEARDQNAINNPVEASIIAEIVEELVNNGVDSKDIGIITPYNSQASLIQHAIPTTPVEIHTIDKYQGRDKDCILVSFVRSREKPRSSASSLLGDWHRINVALTRAKKKLIMVGSQRTLSRVPLLMLLLNKVKEQSGILNLLPGDLKP”: “failed”. Next, “AFLNKHFAKKNHNISVDELSHALELTDKAELTEENNILEGIIRFGGETAKEVMTSRLDVVDLDIRTPFKDVIQCIIDNAYSRIPIYSGTRDNIKGVLYIKDLLPHLNKGDNFRWQSLIRPAYFVPETKMIDDLLRDFQANKIHIAIVVDEFGGTSGIVTMEDIIEEIVGEIHDEYDD”: “not failed”.

Consider “NGQSDVKHIGILQYVEHPSLTATRKGFIKELAKEGYKDGKNIKIEYKNAQGDQSNIQSISEKLIKDNKLVLGIATPAAQSLTTVSTETPILFTAVTDPVSAELVKSMKKPEGLATGTSDMSPIKKQVSLLRKVMPKVKRVGIMYTTSERNSEVQVKQAKKIFQEAGIKTSVKGISSTNDVQDTAKSLMSKTEVIFVPTDNIIASSVTLLGNLSKELKVPVVGGSADMVPSGLLFSYGADYEALGRQTARQAVKILKGKDVAKVPSEYPQNLKVVVNEDMAKELGIDVSSIK”, for which the protein production entry is on record as “not failed”.

For “MRQHLSLFPFILFLLLAFSYVGCRTVRQTPKQSERYVVVLSLDGFRPDYTDRARTPALDRMAQEGLSGSLQPCFPSLTFPNHYSMATGLYPDHHGIVANEFVDSLLGIFRISDRKAVETPGFWGGEPVWNTAARQGIRTGVYFWVGSETAVNGNRPWRWKKFSSTVPFRDRADSVIAWLGLPEKERPRLLMWYIEEPDMIGHSQTPESPLTLAMVERLDSVVGYFRKRLDSLPIAAQTDFIIVSDHGMATYENEKCVNLSHYLPADSFLYMATGAFTHLYPKPSYTERAYEILRAIPHISVYRKGEVPKRLRCGTNPRLGELVVIPDIGSTVFFAINEDVRPGAAHGYDNQAPEMRALLRAVGPDFRPGSRVENLPNITIYPLICRLLGIEPAPNDADETLLNGLIRDKRP”, the protein production result was “failed”.

For “MLIKQTDYFRIYRVINSLLISQNADPASASMYFSTFGAFILQQHYKVKAVPKGGLAAYNLGGTVLLFADHREDGYVTGAGENFHCWVEADGWAIDFMAPAFSEGTDALAVPAKMFQRPLSAMAASINDLGQSGDFFYRSEPEATARRFADWHKQAMIGDMASVAANWFRKSPKQMAASLSVTDRDGKARTVPLTGEMLTGAW”, the protein production entry was “not failed”.
